Reference: publication PMC6224610, “Structural basis for the recognition of sulfur in phosphorothioated DNA” (Nature Communications, 2018)

Columns and labels:
[1] = system: ScoMcrA-SBD R191A (Streptomyces coelicolor); assay: EMSA; conditions: Rp phosphorothioate G(PS)GCC, both strands, EMSA: 20 mM Tris-HCl pH 8.5, 200 mM NaCl, 1 mM DTT, 5% glycerol, 4 C, 30 min, FP: 20 mM Tris pH 8.0, 50 mM NaCl, room temperature, 5 nM …
[2] = system: ScoMcrA-SBD Y164F (Streptomyces coelicolor); assay: EMSA; conditions: Rp phosphorothioate G(PS)GCC, both strands, EMSA: 20 mM Tris-HCl pH 8.5, 200 mM NaCl, 1 mM DTT, 5% glycerol, 4 C, 30 min, FP: 20 mM Tris pH 8.0, 50 mM NaCl, room temperature, 5 nM …
[3] = system: ScoMcrA-SBD R190A (Streptomyces coelicolor); assay: EMSA; conditions: Rp phosphorothioate G(PS)GCC, both strands, EMSA: 20 mM Tris-HCl pH 8.5, 200 mM NaCl, 1 mM DTT, 5% glycerol, 4 C, 30 min, FP: 20 mM Tris pH 8.0, 50 mM NaCl, room temperature, 5 nM …
[4] = system: ScoMcrA-SBD H116I (Streptomyces coelicolor); assay: EMSA; conditions: Rp phosphorothioate G(PS)GCC, both strands, EMSA: 20 mM Tris-HCl pH 8.5, 200 mM NaCl, 1 mM DTT, 5% glycerol, 4 C, 30 min, FP: 20 mM Tris pH 8.0, 50 mM NaCl, room temperature, 5 nM …
[5] = system: ScoMcrA-SBD S187A (Streptomyces coelicolor); assay: EMSA; conditions: Rp phosphorothioate G(PS)GCC, both strands, EMSA: 20 mM Tris-HCl pH 8.5, 200 mM NaCl, 1 mM DTT, 5% glycerol, 4 C, 30 min, FP: 20 mM Tris pH 8.0, 50 mM NaCl, room temperature, 5 nM …
[6] = system: ScoMcrA-SBD Y164I (Streptomyces coelicolor); assay: EMSA; conditions: Rp phosphorothioate G(PS)GCC, both strands, EMSA: 20 mM Tris-HCl pH 8.5, 200 mM NaCl, 1 mM DTT, 5% glycerol, 4 C, 30 min, FP: 20 mM Tris pH 8.0, 50 mM NaCl, room temperature, 5 nM …
[7] = system: ScoMcrA-SBD A168I (Streptomyces coelicolor); assay: EMSA; conditions: Rp phosphorothioate G(PS)GCC, both strands, EMSA: 20 mM Tris-HCl pH 8.5, 200 mM NaCl, 1 mM DTT, 5% glycerol, 4 C, 30 min, FP: 20 mM Tris pH 8.0, 50 mM NaCl, room temperature, 5 nM …
[8] = system: ScoMcrA-SBD R117K (Streptomyces coelicolor); assay: fluorescence polarization; conditions: phosphorothioate G(PS)GCC, EMSA: 20 mM Tris-HCl pH 8.5, 200 mM NaCl, 1 mM DTT, 5% glycerol, 4 C, 30 min, FP: 20 mM Tris pH 8.0, 50 mM NaCl, room temperature, 5 nM …
ScoMcrA-SBD [9] = target: T1, ScoMcrA-SBD (Streptomyces coelicolor, UniProt Q9L0M9 91-260); assay: fluorescence polarization; conditions: phosphorothioate G(PS)GCC, EMSA: 20 mM Tris-HCl pH 8.5, 200 mM NaCl, 1 mM DTT, 5% glycerol, 4 C, 30 min, FP: 20 mM Tris pH 8.0, 50 mM NaCl, room temperature, 5 nM …
T1 sequence: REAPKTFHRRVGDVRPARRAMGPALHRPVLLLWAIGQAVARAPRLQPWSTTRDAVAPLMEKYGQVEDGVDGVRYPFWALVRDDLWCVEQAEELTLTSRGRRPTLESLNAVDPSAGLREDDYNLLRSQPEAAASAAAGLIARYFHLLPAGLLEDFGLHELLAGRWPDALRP

[10] = target: the molecule itself; assay: crystal structure; ScoMcrA-SBD-SRA (91-442) with 10 bp Rp PT-DNA, 3.30 Å, space group I4122; the two protomers are related by the crystallographic two-fold rotation axis
ScoMcrA-SBD [11] = target: T1, ScoMcrA-SBD; assay: EMSA; EMSA: 20 mM Tris-HCl pH 8.5, 200 mM NaCl, 1 mM DTT, 5% glycerol, 4 C, 30 min; FP: 20 mM Tris pH 8.0, 50 mM NaCl, 1 mM DTT, 5% glycerol, room temperature, 5 nM FAM-DNA; conditions: protein: recombinant; tags: MBP tag removed by TEV; blunt
ScoMcrA FL = target: T2, ScoMcrA FL (Streptomyces coelicolor, UniProt Q9L0M9 1-560); assay: as above; conditions: protein: recombinant; tags: MBP tag removed by TEV; chain copies: 2; blunt
T2 sequence: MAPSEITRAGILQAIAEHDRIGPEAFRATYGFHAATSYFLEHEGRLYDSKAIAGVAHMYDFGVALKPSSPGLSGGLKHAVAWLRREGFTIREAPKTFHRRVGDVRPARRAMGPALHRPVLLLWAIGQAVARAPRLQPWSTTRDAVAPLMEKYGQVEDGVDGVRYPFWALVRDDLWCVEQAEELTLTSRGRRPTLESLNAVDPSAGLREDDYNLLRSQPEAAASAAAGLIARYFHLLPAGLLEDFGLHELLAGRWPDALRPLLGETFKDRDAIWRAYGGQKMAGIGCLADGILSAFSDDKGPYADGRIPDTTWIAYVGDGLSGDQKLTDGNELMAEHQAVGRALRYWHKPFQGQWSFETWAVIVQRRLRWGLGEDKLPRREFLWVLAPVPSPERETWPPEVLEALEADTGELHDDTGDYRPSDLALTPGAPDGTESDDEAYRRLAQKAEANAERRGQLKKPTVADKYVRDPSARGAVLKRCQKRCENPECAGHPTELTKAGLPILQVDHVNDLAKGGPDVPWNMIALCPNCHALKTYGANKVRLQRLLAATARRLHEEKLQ

[12] = target: the molecule itself; assay: crystal structure; full-length ScoMcrA alone, 3.15 Å, space group P212121, six molecules in each asymmetric unit
ScoMcrA-SBD-SRA = target: T3, ScoMcrA-SBD-SRA (Streptomyces coelicolor, UniProt Q9L0M9 91-442); assay: crystal structure (3.30 A); EMSA: 20 mM Tris-HCl pH 8.5, 200 mM NaCl, 1 mM DTT, 5% glycerol, 4 C, 30 min; FP: 20 mM Tris pH 8.0, 50 mM NaCl, 1 mM DTT, 5% glycerol, room temperature, 5 nM FAM-DNA; conditions: protein: recombinant; tags: MBP tag removed by TEV; chain copies: 2; blunt
T3 sequence: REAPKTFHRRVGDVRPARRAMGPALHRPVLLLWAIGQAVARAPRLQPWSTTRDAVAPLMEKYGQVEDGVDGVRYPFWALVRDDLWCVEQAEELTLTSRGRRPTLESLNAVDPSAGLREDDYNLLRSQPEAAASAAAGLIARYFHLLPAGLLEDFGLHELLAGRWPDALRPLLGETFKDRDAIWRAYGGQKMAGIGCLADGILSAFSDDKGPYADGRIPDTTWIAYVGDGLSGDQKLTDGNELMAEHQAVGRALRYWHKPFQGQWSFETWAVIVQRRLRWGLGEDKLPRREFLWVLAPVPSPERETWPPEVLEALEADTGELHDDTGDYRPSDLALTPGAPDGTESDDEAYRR

ScoMcrA-SBD [13] = target: T1, ScoMcrA-SBD; assay: crystal structure (1.70 A); EMSA: 20 mM Tris-HCl pH 8.5, 200 mM NaCl, 1 mM DTT, 5% glycerol, 4 C, 30 min; FP: 20 mM Tris pH 8.0, 50 mM NaCl, 1 mM DTT, 5% glycerol, room temperature, 5 nM FAM-DNA; conditions: protein: recombinant; tags: MBP tag removed by TEV; blunt

What does the source list for Rp PT-DNA, GGCC core (EMSA)?
binding signal (% reduction vs WT) [1]: 72; binding signal (% reduction vs WT) [2]: 65; binding signal (% reduction vs WT) [3]: 82; binding signal (% reduction vs WT) [4]: 94; binding signal (% reduction vs WT) [5]: 38; binding signal (% reduction vs WT) [6]: 89; binding signal (% reduction vs WT) [7]: 51

For 5-FAM PT-DNA, GGCC core (FP), which Kd [8] is on record?
The Kd was 1550 nM.

What about the Kd (ScoMcrA-SBD [9]) of the same molecule?
Its Kd is 1320 nM.

How did the Kd (ScoMcrA-SBD [9]; one strand) turn out when 5-FAM hemi-PT-DNA (FP) was run?
The Kd was 1470 nM.

B1: SBD-SRA domains of ScoMcrA (residues 91-442) (domain or fragment, Streptomyces coelicolor, UniProt Q9L0M9 91-442, looked up)
chain: T3 sequence
notes: ScoMcrA (ScoA3McrA), Streptomyces coelicolor, SBD-SRA domains, residues 91-442; Crystallised in complex with a 10 bp Rp PT-DNA; the dimer is formed by a crystallographic two-fold axis; also called ScoMcrA-SBD-SRA; source: E. coli BL21(DE3), purified (HisTrap, TEV cleavage, heparin, Source 15Q, Superdex 200)
How did the “stoichiometry N” value [10] turn out when B1 was run?
Its value is 2.

B2: hemi-PT-DNA (S10hemi-S/U10hemi-A) (dsDNA)
DNA 1: CCCGGCCGCC
DNA 2: GGCGGCCGGG
modifications: Rp phosphorothioate between G4 and G5 of strand 1 only
Does B2 bind (ScoMcrA-SBD [11])?
Result: binds

Does B2 bind (ScoMcrA FL)?
Result: binds

B3: full-length Streptomyces coelicolor ScoMcrA (ScoA3McrA), DNA phosphorothioation-dependent Type-IV restriction endonuclease (enzyme, UniProt Q9L0M9 1-560, looked up)
chain: T2 sequence
notes: ScoMcrA (ScoA3McrA), Streptomyces coelicolor, full length; head, SBD, SRA and HNH domains; the model reaches residue 560; The structure was phased by SAD with a selenomethionine derivative of the full-length protein; Cloned into pSJ8; also called FL ScoMcrA; source: E. coli BL21(DE3), purified (HisTrap, TEV cleavage, heparin, Source 15Q, Superdex 200)
B3 was tested. Which “stoichiometry N” value [12] did it give?
Its value is 2.

B4: GGCC10 Rp (dsDNA)
DNA 1: CCCGGCCGGG
DNA 2: CCCGGCCGGG
modifications: Rp phosphorothioate between G4 and G5, both strands
Does B4 bind (ScoMcrA-SBD-SRA)?
Result: binds

B5: GGCC8 Rp (dsDNA)
DNA 1: CCGGCCGG
DNA 2: CCGGCCGG
modifications: Rp phosphorothioate between G3 and G4, both strands
Does B5 bind (ScoMcrA-SBD [13])?
Result: binds
